We go through 94 variants from the supplement of paper PMC10567573.

B1: TRIM43 (parent)
chain: FCDMDKSLLCLLCSNSQEHGAHKH
B2: KLHL20 (parent)
chain: YQDMIYAVGGRDDTTELSSAERYN
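Further: lentivirally expressed fusions sorted by FACS into six bins by GFP to DsRed ratio, PSI derived from sequencing read proportions per bin multiplied by bin number.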

In one series the parent is B1. The experiment in a line: protein stability index of a GFP-peptide fusion (GPS, HEK-293T) (PSI 1-6); higher = more stable. As to conditions: c terminus: a fixed tail appended.
For FCDMDKSLLCLLCSNSQEHGVHKH, the protein stability index is 1.85. Take FCDMDKSLLCLLCSNSQEHGAHDH: the protein stability index worked out at 2.4. For FCDMDKSLLCLLCSNSQEHGAHEH, the protein stability index worked out at 2.05. Still for that read-out and setting: the value for FCDMDKSLLCLLCSNSQEHGAHQH was 1.64.

As for FCDMDKSLLCLLCSNSQEHGAHLH, the protein stability index worked out at 1.63. FCDMDKSLLCLLCSNSQEHGAHPH: the protein stability index stood at 2.06. Take FCDMDKSLLCLLCSNSQEHGAHNH: the protein stability index amounted to 1.89. The same measure, in the same setting: the value for FCDMDKSLLCLLCSNSQEHGAHIH was 2.17. The same measure, in the same setting: the value for FCDMDKSLLCLLCSNSQEHGAHSH was 2.25. On the same count and under the same terms, the same measure for FCDMDKSLLCLLCSNSQEHGAHYH: 1.43. For FCDMDKSLLCLLCSNSQEHGAHMH, the protein stability index is 1.91. Same read-out and setting: the same measure for FCDMDKSLLCLLCSNSQEHGAHGH: 1.53; for FCDMDKSLLCLLCSNSQEHGAHCH: 1.82; for FCDMDKSLLCLLCSNSQEHGAHFH: 1.82. Still for that read-out and setting: the same measure for FCDMDKSLLCLLCSNSQEHGAHTH: 2.02. Still for that read-out and setting: the value for FCDMDKSLLCLLCSNSQEHGAHWH was 1.94. As for FCDMDKSLLCLLCSNSQEHGAHAH, the protein stability index is 2.06.

With FCDMDKSLLCLLCSNSQEHGAHRH, the protein stability index is 2.18. On the same count and under the same terms, the same measure for FCDMDKSLLCLLCSNSQEHGAHVH: 2.06; for FCDMDKSLLCLLCSNSQEHGAHHH: 2.13. On the same count and under the same terms, the same measure for FCDMDKSLLCLLCSNSKEHGAHKH: 2.13; for FCDMDKSLLCLLCSNSIEHGAHKH: 1.78; for FCDMDKSLLCLLCSNSYEHGAHKH: 2.19. The same measure, in the same setting: the value for FCDMDKSLLCLLCSNSFEHGAHKH was 2.05; that for FCDMDKSLLCLLCSNSEEHGAHKH was 2.1; that for FCDMDKSLLCLLCSNSNEHGAHKH was 1.51. Take FCDMDKSLLCLLCSNSCEHGAHKH: the protein stability index was 2.22. As for FCDMDKSLLCLLCSNSLEHGAHKH, the protein stability index is 1.63. Take FCDMDKSLLCLLCSNSHEHGAHKH: the protein stability index is 1.76. In the case of FCDMDKSLLCLLCSNSSEHGAHKH, the protein stability index turned out to be 1.55.

Take FCDMDKSLLCLLCSNSGEHGAHKH: the protein stability index worked out at 1.84.

For FCDMDKSLLCLLCSNSREHGAHKH, the protein stability index turned out to be 1.6. The same measure, in the same setting: the same measure for FCDMDKSLLCLLCSNSWEHGAHKH: 1.74; for FCDMDKSLLCLLCSNSMEHGAHKH: 1.58. On the same count and under the same terms, the value for FCDMDKSLLCLLCSNSDEHGAHKH was 1.78.

In the case of FCDMDKSLLCLLCSNSPEHGAHKH, the protein stability index turned out to be 1.7.

Turning to FCDMDKSLLCLLCSNSAEHGAHKH, the protein stability index worked out at 1.85. On the same count and under the same terms, the same measure for FCDMDKSLLCLLCSNSVEHGAHKH: 1.67. Consider FCDMDKSLLCLLCSNSTEHGAHKH, for which the protein stability index came to 1.61. The same measure, in the same setting: the same measure for FCDMDKSLLCLLCSPSQEHGAHKH: 1.34.

On to FCDMDKSLLCLLCSFSQEHGAHKH, for which the protein stability index came to 2.01. For FCDMDKSLLCLLCSSSQEHGAHKH, the protein stability index is 2.07. For the variant FCDMDKSLLCLLCSKSQEHGAHKH, the protein stability index amounted to 2.26. On the same count and under the same terms, the value for FCDMDKSLLCLLCSVSQEHGAHKH was 1.89; that for FCDMDKSLLCLLCSRSQEHGAHKH was 2.1; that for FCDMDKSLLCLLCSGSQEHGAHKH was 1.94. Still for that read-out and setting: the value for FCDMDKSLLCLLCSYSQEHGAHKH was 2.09. Still for that read-out and setting: the same measure for FCDMDKSLLCLLCSLSQEHGAHKH: 2.4. Consider FCDMDKSLLCLLCSWSQEHGAHKH, for which the protein stability index was determined as 1.89. Regarding FCDMDKSLLCLLCSMSQEHGAHKH, the protein stability index came to 1.66. As for FCDMDKSLLCLLCSISQEHGAHKH, the protein stability index came out at 2.49. On to FCDMDKSLLCLLCSQSQEHGAHKH, for which the protein stability index came to 1.87. Same read-out and setting: the same measure for FCDMDKSLLCLLCSTSQEHGAHKH: 1.77; for FCDMDKSLLCLLCSHSQEHGAHKH: 1.55. With FCDMDKSLLCLLCSNSQETGAHKH, the protein stability index came to 1.83. Same read-out and setting: the same measure for FCDMDKSLLCLLCSNSQEVGAHKH: 1.59; for FCDMDKSLLCLLCSNSQEGGAHKH: 2.18; for FCDMDKSLLCLLCSNSQEWGAHKH: 1.51.

For FCDMDKSLLCLLCSNSQEYGAHKH, the protein stability index was found to be 1.91. FCDMDKSLLCLLCSNSQEMGAHKH: the protein stability index amounted to 2.03. Same read-out and setting: the same measure for FCDMDKSLLCLLCSNSQEPGAHKH: 2.05. On the same count and under the same terms, the value for FCDMDKSLLCLLCSNSQEIGAHKH was 1.87. Consider FCDMDKSLLCLLCSNSQEFGAHKH, for which the protein stability index is 1.67. Take FCDMDKSLLCLLCSNSQEAGAHKH: the protein stability index is 1.91. Still for that read-out and setting: the value for FCDMDKSLLCLLCSNSQECGAHKH was 2.03; that for FCDMDKSLLCLLCSNSQERGAHKH was 2.03. Same read-out and setting: the value for FCDMDKSLLCLLCSNSQEKGAHKH was 2.11; that for FCDMDKSLLCLLCSNSQENGAHKH was 1.75.

Consider FCDMDKSLLCLLCSNSQEDGAHKH, for which the protein stability index turned out to be 2.38.

Take FCDMDKSLLCLLCSNSQEQGAHKH: the protein stability index was 1.41. For FCDMDKSLLCLLCSNSQESGAHKH, the protein stability index was 2.01. The same measure, in the same setting: the same measure for FCDMDKSLLCLLCSNSQELGAHKH: 1.42; for FCDMDKSLLCLLCSNSQEEGAHKH: 1.98; for FCDMDKSLLCLLCSNSQEHGANKH: 1.75.

Take FCDMDKSLLCLLCSNSQEHGARKH: the protein stability index turned out to be 1.84. FCDMDKSLLCLLCSNSQEHGAQKH: the protein stability index came out at 1.91. As for FCDMDKSLLCLLCSNSQEHGAWKH, the protein stability index is 1.45.

For the variant FCDMDKSLLCLLCSNSQEHGAVKH, the protein stability index was determined as 1.7. For the variant FCDMDKSLLCLLCSNSQEHGAFKH, the protein stability index stood at 2.17. As for FCDMDKSLLCLLCSNSQEHGAEKH, the protein stability index was found to be 1.53. On to FCDMDKSLLCLLCSNSQEHGAYKH, for which the protein stability index amounted to 1.87.

As for FCDMDKSLLCLLCSNSQEHGAIKH, the protein stability index was found to be 2.17. Turning to FCDMDKSLLCLLCSNSQEHGASKH, the protein stability index turned out to be 1.73. FCDMDKSLLCLLCSNSQEHGALKH: the protein stability index was 1.61. Same read-out and setting: the value for FCDMDKSLLCLLCSNSQEHGAAKH was 1.77; that for FCDMDKSLLCLLCSNSQEHGAKKH was 1.73; that for FCDMDKSLLCLLCSNSQEHGACKH was 2.59. Regarding FCDMDKSLLCLLCSNSQEHGATKH, the protein stability index turned out to be 1.79. The same measure, in the same setting: the same measure for FCDMDKSLLCLLCSNSQEHGAMKH: 1.48; for FCDMDKSLLCLLCSNSQEHGADKH: 2.11. Same read-out and setting: the value for FCDMDKSLLCLLCSNSQEHGAGKH was 1.78; that for FCDMDKSLLCLLCSNSQEHGAPKH was 1.69.

In the next series the parent is B2. The description is as above. The note with it: c terminus: a fixed tail appended.
Regarding CQDMIYAVGGRDDTTELSSAERYN, the protein stability index was 4.21.

Turning to AQDMIYAVGGRDDTTELSSAERYN, the protein stability index was 4.78.
